This series is described as follows: mouse vaccination, whole-cell ELISA for CPS14-specific IgG. As to conditions: glycan gained; control: unglycosylated ComP.

Data on 1 substance can be found in paper PMC6385209.

On to ComP: CPS14-ComP bioconjugate, for which the “other: immunogenicity” value is “increases”.
